# Reference: article PMC8778164, “Towards Complete Tumor Resection: Novel Dual-Modality Probes for Improved Image-Guided Surgery of GRPR-Expressing Prostate Cancer” (Pharmaceutics, 2022)
# Like-named read-outs stand apart in the source and are kept apart here.
# Experiments:
# Type in all cases: in vivo, mouse
# [1] = Ex vivo biodistribution after SPECT/CT scanning; conditions: mouse, iv, PC-3 xenograft mice, i.v., ~3 h p.i.
# Experimental: (§1) Seven-week-old male Balb/c nu/nu-specific and opportunistic pathogen-free (SOPF) mice (Janvier Labs, Le Genest-Saint-Isle, France) were housed in individually ventilated cages, with 4 mice per cage. Upon arrival, mice were acclimated for 1 week, with access to food and water ad libitum. Mice were subcutaneously inoculated on the right shoulder with PC-3 cells (5 × 10^6 cells suspended in 100 µL of 1/3 Matrigel (Corning Inc., Corning, NY, USA) and 2/3 Hank’s balanced salt solution (Gibco). PC-3 xenografts were allowed to grow for 3 weeks. Tumor sizes were 391 ± 173 mm^3 at the start of the studies. All animal experiments were approved by the Animal Welfare Committee of the Erasmus MC and were conducted in agreement with institutional guidelines (license number: AVD101002017867, 28 September 2017).
# (§2) To determine the biodistribution of the compounds after imaging (~3 h p.i.), blood was collected via cardiac puncture under isoflurane/O2 anesthesia, after which the mice were sacrificed. The tumor and organs of interest (prostate, pancreas, spleen, liver, GI tract (stomach, small intestine, cecum, large intestine), kidneys, lungs, heart, muscle, bone, and brain) were excised, washed in PBS and blotted dry. The stomach, intestines and cecum were emptied of their contents. The tumor was cut in half; one half was fresh-frozen for further analysis and the other half was collected for ex vivo optical imaging and radioactivity measurements. After imaging, the blood, tumor, and relevant organs were weighed and measured in a γ-counter. To determine the total injected radioactivity per animal, samples of the injected solutions were measured as well. The percentage of injected dose per gram (%ID/g) was determined for each tissue sample and corrected for both the injected volume and %ID present at the injection site (the tail). Because the low weight of the prostate limited accurate organ weight measurements, the average prostate weight of all animals was used.
# [2] = test system: PC-3-xenograft Balb/c nu/nu mice; test: Ex vivo biodistribution after SPECT/CT scanning; conditions: radioactivity, ~3 h p.i.
# Experimental: as §1, §2
# [3] = Ex vivo optical (fluorescence, IVIS) imaging of organs; conditions: male, Balb/c nu/nu, mouse, iv, ex vivo radiant efficiency
# Experimental: as §1
# (§3) Before gamma counter measurements, the tumor half, pancreas, kidneys, lungs, small intestine, large intestine, liver, muscle, and bone were placed in two petri dishes and ex vivo optical imaging was performed with the IVIS Spectrum system (Perkin Elmer, Waltham, MA, USA) using the following settings for all measurements: FOV 12.6 cm, medium binning, f2, 0.5 s exposure with an excitation/emission filter of 640 nm/680 nm. Living Image version 4.5.2 software (Perkin Elmer) was used to perform data analysis by drawing a region of interest around the organ/tissue to quantify the radiant efficiency {(photons/second/cm^2/steradian)/(μW/cm^2)}.
# [4] = test system: PC-3-xenograft Balb/c nu/nu mice; test: as above; conditions: ex vivo after dissection, ex/em 640/680 nm
# Experimental: as §1, §3
# [5] = blocked with 150 nmol unlabeled NeoB, n = 1
# [6] = non-blocked, n = 3, listed as [111In]In‐12
compound,measurement,setting,value
"CC(C)CC(CC(C)C)NC(=O)[C@H](Cc1c[nH]cn1)NC(=O)CNC(=O)[C@@H](NC(=O)[C@H](C)NC(=O)[C@H](Cc1c[nH]c2ccccc12)NC(=O)[C@H](CCC(N)=O)NC(=O)[C@@H](Cc1ccccc1)NC(=O)COCC(=O)Nc1ccc(CNC(=O)[C@H](CCCCNC(=O)CCOCCOCCOCCOCCNC(=O)OC2CCCC3C=NN=C(c4ccc(CNC(=O)CCCCC[N+]5=C(/C=C/C=C/C=C6N(C)c7ccc(S(=O)(=O)O)cc7C6(C)C)C(C)(C)c6cc(S(=O)(=O)[O-])ccc65)cc4)C3CC2)NC(=O)CN2CCN(CC(=O)O)CCN(CC(=O)O)CCN(CC(=O)O)CC2)cc1)C(C)C (stereo partly drawn) [[^111In]In-12, metal not drawn]",tissue uptake at 3 h,"[1]; small intestine, non-blocked, n = 3, read-out: Small intestine uptake",4.4 ± 2.45 %ID/g
same,tissue uptake at 3 h,"[1]; spleen, blocked with 150 nmol unlabeled NeoB, n = 1, read-out: Spleen uptake",3.32 %ID/g
same,tissue uptake at 3 h,"[1]; spleen, non-blocked, n = 3, read-out: Spleen uptake",4.11 ± 0.94 %ID/g
same,tissue uptake at 3 h,"[1]; stomach, blocked with 150 nmol unlabeled NeoB, n = 1, read-out: Stomach uptake",3.12 %ID/g
same,tissue uptake at 3 h,"[1]; stomach, non-blocked, n = 3, read-out: Stomach uptake",3.22 ± 0.54 %ID/g
same,tissue uptake at 3 h,"[1]; tumor, blocked with 150 nmol unlabeled NeoB, n = 1, read-out: Tumor uptake",2.72 %ID/g
same,tissue uptake at 3 h,"[1]; tumor, non-blocked, n = 3, read-out: Tumor uptake",8.47 ± 0.46 %ID/g
same,Tumor-to-blood ratio,[2]; [5],0.37
same,Tumor-to-prostate ratio,[2]; [5],0.62
same,Tumor-to-prostate ratio,"[2]; non-blocked, n = 3",2.86 ± 1.58
same,tissue to tissue ratio,"[3]; tumor and kidney, blocked with 150 nmol unlabeled NeoB, n = 1, read-out: Tumor-to-kidney ratio (fluorescence)",0.31
same,tissue to tissue ratio,"[3]; tumor and kidney, non-blocked, n = 3, read-out: Tumor-to-kidney ratio (fluorescence)",0.47 ± 0.16
same,tissue to tissue ratio,"[3]; tumor and liver, blocked with 150 nmol unlabeled NeoB, n = 1, read-out: Tumor-to-liver ratio (fluorescence)",0.69
same,tissue to tissue ratio,"[3]; tumor and liver, non-blocked, n = 3, read-out: Tumor-to-liver ratio (fluorescence)",1.96 ± 0.47
same,tissue to tissue ratio,"[3]; tumor and muscle, blocked with 150 nmol unlabeled NeoB, n = 1, read-out: Tumor-to-muscle ratio (fluorescence)",2.21
same,tissue to tissue ratio,"[3]; tumor and muscle, non-blocked, n = 3, read-out: Tumor-to-muscle ratio (fluorescence)",5.69 ± 1.94
same,tissue to tissue ratio,"[3]; tumor and pancreas, blocked with 150 nmol unlabeled NeoB, n = 1, read-out: Tumor-to-pancreas ratio (fluorescence)",2.54
same,tissue to tissue ratio,"[3]; tumor and pancreas, non-blocked, n = 3, read-out: Tumor-to-pancreas ratio (fluorescence)",0.69 ± 0.22
same,"Fluorescent signal, bone (average radiant efficiency)",[4]; [5],0.32 × 10^8 p/sec/cm^2/sr per µW/cm
same,"Fluorescent signal, kidneys (average radiant efficiency)",[4]; [5],5.42 × 10^8 p/sec/cm^2/sr per µW/cm
same,"Fluorescent signal, large intestine (average radiant efficiency)",[4]; [5],0.47 × 10^8 p/sec/cm^2/sr per µW/cm
same,"Fluorescent signal, liver (average radiant efficiency)",[4]; [5],2.42 × 10^8 p/sec/cm^2/sr per µW/cm
same,"Fluorescent signal, lungs (average radiant efficiency)",[4]; [5],2.88 × 10^8 p/sec/cm^2/sr per µW/cm
same,"Fluorescent signal, muscle (average radiant efficiency)",[4]; [5],0.76 × 10^8 p/sec/cm^2/sr per µW/cm
same,"Fluorescent signal, pancreas (average radiant efficiency)",[4]; [5],0.66 × 10^8 p/sec/cm^2/sr per µW/cm
same,"Fluorescent signal, small intestine (average radiant efficiency)",[4]; [5],0.44 × 10^8 p/sec/cm^2/sr per µW/cm
same,"Fluorescent signal, tumor (average radiant efficiency)",[4]; [5],1.67 × 10^8 p/sec/cm^2/sr per µW/cm
same,"Fluorescent signal, bone (average radiant efficiency)","[4]; non-blocked, n = 3",0.40 ± 0.11 × 10^8 p/sec/cm^2/sr per µW/cm
same,"Fluorescent signal, kidneys (average radiant efficiency)","[4]; non-blocked, n = 3",9.41 ± 0.92 × 10^8 p/sec/cm^2/sr per µW/cm^2
same,"Fluorescent signal, large intestine (average radiant efficiency)","[4]; non-blocked, n = 3",0.68 ± 0.19 × 10^8 p/sec/cm^2/sr per µW/cm
same,"Fluorescent signal, liver (average radiant efficiency)","[4]; non-blocked, n = 3",2.20 ± 0.09 × 10^8 p/sec/cm^2/sr per µW/cm
same,"Fluorescent signal, lungs (average radiant efficiency)","[4]; non-blocked, n = 3",1.93 ± 0.18 × 10^8 p/sec/cm^2/sr per µW/cm
same,"Fluorescent signal, muscle (average radiant efficiency)","[4]; non-blocked, n = 3",0.78 ± 0.08 × 10^8 p/sec/cm^2/sr per µW/cm
same,"Fluorescent signal, pancreas (average radiant efficiency)","[4]; non-blocked, n = 3",6.32 ± 0.50 × 10^8 p/sec/cm^2/sr per µW/cm^2
same,"Fluorescent signal, small intestine (average radiant efficiency)","[4]; non-blocked, n = 3",0.85 ± 0.30 × 10^8 p/sec/cm^2/sr per µW/cm
same,"Fluorescent signal, tumor (average radiant efficiency)","[4]; non-blocked, n = 3",4.31 ± 1.03 × 10^8 p/sec/cm^2/sr per µW/cm^2
same,"Fluorescent signal, kidneys (average radiant efficiency)",[4]; [6],9.41 ± 0.92 × 10^8 p/sec/cm^2/sr per µW/cm
same,"Fluorescent signal, pancreas (average radiant efficiency)",[4]; [6],6.32 ± 0.50 × 10^8 p/sec/cm^2/sr per µW/cm
same,"Fluorescent signal, tumor (average radiant efficiency)",[4]; [6],4.31 ± 1.03 × 10^8 p/sec/cm^2/sr per µW/cm
